Assay [1] addresses T1, Plasminogen-depleted human fibrinogen (human, UniProt P02671 20-629; P02675 31-491; P02679 27-437).
T1 construct: Bought protein, immobilized at 0.5 µg per well
T1 sequence 1: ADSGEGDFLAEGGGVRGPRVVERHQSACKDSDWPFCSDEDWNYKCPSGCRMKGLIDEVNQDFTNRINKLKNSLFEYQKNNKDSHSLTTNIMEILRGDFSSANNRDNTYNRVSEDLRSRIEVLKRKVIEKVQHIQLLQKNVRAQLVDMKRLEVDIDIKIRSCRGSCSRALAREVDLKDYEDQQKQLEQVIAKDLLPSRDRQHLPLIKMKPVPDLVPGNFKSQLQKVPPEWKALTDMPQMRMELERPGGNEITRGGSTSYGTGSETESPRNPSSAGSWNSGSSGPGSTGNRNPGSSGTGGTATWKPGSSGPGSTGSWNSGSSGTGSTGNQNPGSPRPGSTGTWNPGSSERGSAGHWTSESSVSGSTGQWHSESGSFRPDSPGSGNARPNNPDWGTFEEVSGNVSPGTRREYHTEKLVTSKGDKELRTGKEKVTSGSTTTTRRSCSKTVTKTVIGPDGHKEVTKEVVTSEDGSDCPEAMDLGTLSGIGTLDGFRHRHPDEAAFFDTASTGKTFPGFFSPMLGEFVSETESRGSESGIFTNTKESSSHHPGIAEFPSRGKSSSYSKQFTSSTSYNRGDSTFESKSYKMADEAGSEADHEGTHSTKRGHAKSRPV
T1 sequence 2: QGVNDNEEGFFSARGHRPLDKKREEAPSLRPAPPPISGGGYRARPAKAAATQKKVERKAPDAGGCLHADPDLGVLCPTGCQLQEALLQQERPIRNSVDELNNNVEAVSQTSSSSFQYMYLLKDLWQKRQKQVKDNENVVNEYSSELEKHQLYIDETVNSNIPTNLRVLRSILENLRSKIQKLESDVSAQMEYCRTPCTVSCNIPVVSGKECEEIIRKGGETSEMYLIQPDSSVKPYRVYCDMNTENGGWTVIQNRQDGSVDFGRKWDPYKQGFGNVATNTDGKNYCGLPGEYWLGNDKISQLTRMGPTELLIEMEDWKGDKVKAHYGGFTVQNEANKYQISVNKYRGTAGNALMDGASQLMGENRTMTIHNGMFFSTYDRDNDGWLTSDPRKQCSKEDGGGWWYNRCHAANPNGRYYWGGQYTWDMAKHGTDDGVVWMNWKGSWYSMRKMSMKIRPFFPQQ
T1 sequence 3: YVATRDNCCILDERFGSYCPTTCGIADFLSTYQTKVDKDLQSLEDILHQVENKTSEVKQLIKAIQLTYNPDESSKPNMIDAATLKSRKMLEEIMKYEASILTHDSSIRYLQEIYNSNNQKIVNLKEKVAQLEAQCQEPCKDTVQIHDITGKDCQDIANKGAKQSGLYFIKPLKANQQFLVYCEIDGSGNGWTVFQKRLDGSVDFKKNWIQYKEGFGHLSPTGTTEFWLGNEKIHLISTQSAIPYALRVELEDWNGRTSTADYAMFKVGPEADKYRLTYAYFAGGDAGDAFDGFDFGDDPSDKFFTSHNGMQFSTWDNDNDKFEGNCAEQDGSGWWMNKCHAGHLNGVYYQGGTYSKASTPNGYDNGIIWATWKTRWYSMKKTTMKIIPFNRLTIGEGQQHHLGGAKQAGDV
Put plainly: 96-well plate binding assay, immobilized host protein 0.5 µg/well, peptide 2.0 µg/well, A600.

Assay [2] deals with T1, Plasminogen-depleted human fibrinogen. Put plainly: 96-well plate binding assay, immobilized host protein 0.5 µg/well, His-tagged peptide, A600.
Assay [3] addresses T2, fibronectin isolated from human plasma (human, UniProt P02751 32-2296).
T2 construct: Bought protein, immobilized at 0.5 µg per well
The assay is described as above.

The target of another assay is T3, Human collagen type I (human, UniProt P02452 162-1218; P08123 80-1119).
T3 construct: Bought protein, immobilized at 0.5 µg per well; also called collagen I
T3 sequence (P02452 162-1218, chain 1 of 2): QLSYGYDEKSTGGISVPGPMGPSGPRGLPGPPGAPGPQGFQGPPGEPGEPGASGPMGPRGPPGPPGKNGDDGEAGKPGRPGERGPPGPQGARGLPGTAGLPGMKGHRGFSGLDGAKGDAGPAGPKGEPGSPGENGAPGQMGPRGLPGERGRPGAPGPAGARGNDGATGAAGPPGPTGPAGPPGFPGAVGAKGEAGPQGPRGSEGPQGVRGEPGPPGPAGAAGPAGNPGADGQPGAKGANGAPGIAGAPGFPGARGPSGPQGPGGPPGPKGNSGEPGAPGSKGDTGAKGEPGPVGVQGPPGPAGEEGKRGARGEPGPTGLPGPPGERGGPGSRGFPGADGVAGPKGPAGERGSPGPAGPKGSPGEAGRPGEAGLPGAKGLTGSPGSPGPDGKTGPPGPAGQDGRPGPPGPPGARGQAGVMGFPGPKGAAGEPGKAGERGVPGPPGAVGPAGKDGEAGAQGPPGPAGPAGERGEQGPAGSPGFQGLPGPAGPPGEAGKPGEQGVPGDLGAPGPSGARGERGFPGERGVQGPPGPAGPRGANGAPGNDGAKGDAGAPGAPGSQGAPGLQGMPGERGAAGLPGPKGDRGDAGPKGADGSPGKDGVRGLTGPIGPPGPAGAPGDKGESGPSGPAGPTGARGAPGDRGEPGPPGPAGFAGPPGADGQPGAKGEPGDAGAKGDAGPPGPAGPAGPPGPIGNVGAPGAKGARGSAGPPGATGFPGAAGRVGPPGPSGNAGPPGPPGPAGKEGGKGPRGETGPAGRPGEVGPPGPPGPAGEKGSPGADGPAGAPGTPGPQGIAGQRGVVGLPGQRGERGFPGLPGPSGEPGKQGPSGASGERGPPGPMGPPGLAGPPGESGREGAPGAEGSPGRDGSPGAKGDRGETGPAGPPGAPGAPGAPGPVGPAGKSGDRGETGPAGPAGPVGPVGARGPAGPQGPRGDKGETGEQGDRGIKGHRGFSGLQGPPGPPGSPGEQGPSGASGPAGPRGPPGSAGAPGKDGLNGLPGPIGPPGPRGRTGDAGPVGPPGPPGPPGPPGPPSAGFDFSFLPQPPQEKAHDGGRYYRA
T3 sequence (P08123 80-1119, chain 2 of 2): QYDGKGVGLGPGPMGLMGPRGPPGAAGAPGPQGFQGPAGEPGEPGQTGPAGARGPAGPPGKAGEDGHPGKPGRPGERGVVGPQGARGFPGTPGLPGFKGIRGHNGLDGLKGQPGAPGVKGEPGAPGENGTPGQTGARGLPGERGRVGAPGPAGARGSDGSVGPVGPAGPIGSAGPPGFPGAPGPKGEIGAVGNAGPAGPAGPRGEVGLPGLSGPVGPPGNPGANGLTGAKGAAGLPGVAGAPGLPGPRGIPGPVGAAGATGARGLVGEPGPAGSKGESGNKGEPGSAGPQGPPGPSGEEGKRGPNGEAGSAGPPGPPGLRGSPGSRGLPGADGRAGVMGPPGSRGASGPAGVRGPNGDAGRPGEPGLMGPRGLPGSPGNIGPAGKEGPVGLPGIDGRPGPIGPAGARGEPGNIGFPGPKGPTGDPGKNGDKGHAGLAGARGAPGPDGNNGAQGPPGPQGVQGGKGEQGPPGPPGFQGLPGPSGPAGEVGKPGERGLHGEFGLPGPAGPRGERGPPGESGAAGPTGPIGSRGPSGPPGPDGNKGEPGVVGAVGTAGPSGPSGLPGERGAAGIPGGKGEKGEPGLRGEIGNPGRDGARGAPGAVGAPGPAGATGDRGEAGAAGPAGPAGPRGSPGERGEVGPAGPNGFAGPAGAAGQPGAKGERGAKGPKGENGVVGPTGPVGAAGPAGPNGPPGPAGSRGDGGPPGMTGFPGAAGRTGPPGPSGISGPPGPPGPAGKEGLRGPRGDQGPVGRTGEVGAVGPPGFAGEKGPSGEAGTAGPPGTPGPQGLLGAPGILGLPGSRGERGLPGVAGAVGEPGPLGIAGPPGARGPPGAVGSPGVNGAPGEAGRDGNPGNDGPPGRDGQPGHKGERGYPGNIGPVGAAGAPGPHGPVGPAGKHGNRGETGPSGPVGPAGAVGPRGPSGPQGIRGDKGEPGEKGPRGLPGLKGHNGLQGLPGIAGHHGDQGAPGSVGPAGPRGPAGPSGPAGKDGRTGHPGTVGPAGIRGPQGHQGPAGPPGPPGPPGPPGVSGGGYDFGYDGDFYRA
The assay is described as above.

The target in assay [4] is T1, Plasminogen-depleted human fibrinogen. In words: 96-well plate binding assay, immobilized host protein, His-tagged peptide, A600.

T2 sequence (P02751 other isoform, or with tags, fused parts or gaps limits assumed): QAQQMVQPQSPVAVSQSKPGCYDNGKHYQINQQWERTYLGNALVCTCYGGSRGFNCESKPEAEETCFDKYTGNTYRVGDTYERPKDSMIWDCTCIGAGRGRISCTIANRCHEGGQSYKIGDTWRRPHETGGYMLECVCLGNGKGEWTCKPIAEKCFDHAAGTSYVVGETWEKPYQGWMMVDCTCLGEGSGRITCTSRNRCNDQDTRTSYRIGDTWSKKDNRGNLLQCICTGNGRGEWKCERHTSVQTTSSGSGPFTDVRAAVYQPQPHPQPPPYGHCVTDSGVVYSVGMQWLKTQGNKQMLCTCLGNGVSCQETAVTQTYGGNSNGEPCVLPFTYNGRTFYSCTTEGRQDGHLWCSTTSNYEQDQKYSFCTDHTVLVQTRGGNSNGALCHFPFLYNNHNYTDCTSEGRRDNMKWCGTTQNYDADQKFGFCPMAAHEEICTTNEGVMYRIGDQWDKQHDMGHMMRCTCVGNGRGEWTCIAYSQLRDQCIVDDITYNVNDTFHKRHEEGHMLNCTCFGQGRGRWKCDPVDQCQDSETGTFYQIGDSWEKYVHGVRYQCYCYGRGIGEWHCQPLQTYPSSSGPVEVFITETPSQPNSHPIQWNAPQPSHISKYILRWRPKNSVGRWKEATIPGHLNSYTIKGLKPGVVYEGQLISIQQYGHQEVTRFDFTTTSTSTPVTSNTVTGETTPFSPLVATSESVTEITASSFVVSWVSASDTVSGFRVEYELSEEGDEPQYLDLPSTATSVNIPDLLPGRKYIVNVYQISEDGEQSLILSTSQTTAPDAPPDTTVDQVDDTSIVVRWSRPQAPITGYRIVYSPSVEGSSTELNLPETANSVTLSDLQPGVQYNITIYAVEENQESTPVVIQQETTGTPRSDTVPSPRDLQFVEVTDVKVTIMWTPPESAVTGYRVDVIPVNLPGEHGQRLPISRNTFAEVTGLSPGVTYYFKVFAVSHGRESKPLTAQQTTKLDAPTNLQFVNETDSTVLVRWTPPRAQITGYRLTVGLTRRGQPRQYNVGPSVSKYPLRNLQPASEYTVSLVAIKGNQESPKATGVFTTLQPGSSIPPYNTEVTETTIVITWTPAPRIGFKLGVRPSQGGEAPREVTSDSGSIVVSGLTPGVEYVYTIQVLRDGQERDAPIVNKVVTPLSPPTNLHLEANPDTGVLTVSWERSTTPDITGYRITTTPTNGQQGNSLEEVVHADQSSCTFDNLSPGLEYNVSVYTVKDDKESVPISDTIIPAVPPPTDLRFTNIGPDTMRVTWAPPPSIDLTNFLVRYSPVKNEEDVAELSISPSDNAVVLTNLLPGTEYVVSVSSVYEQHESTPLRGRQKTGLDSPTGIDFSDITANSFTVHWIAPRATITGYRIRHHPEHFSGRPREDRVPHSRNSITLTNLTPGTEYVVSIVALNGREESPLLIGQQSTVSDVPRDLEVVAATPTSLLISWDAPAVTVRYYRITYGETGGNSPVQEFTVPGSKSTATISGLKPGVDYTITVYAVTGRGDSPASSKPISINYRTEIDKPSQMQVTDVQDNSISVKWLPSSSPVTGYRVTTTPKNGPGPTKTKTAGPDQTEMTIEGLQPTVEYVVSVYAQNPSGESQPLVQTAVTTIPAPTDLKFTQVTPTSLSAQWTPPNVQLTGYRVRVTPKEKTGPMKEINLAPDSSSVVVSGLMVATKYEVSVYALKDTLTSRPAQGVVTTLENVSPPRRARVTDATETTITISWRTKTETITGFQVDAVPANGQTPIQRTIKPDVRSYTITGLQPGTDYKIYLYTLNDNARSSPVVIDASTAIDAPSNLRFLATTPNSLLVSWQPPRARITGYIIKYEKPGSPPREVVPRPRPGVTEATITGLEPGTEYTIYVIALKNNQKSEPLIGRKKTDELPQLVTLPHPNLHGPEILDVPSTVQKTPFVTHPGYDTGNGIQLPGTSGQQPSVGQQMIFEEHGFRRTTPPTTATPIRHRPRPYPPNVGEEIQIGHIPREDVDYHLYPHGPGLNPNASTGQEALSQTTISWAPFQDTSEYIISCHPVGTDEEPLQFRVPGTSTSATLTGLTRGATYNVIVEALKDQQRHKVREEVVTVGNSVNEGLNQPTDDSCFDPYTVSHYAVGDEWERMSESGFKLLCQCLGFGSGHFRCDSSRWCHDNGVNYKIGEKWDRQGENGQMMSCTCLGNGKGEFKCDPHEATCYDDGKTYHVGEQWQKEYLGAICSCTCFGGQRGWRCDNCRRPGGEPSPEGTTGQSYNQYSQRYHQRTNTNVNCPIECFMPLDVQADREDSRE

B1: Tp0751 peptide p6 (peptide)
peptide: HHHHHHQGALQHLLAGLWIQTEISPNSGDI
notes: One of 13 overlapping synthetic 24-mers spanning Tp0751 T46-P237; also called peptide 6
As to B1, the binding result in assay [1] is “binds”.

As to HHHHHHTSNDWGQSLAILHEPQLGILQAGI (Scrambled synthetic peptide) [scrambled version of Tp0751 peptide 6 (p6scr)], the binding result (in assay [2]; in assay [3]; in the assay with Human collagen type I) was “no binding (tested: 2.0 µg per well)” each time.

On to HHHHHHMRLTPGWHTANQIRPQAQGVATAA (Scrambled synthetic peptide) [scrambled version of Tp0751 peptide 4 (p4scr)], for which the binding result (in assay [2]; in assay [3]; with Human collagen type I) was “no binding (tested: 2.0 µg per well)” throughout.

B2: scrambled version of Tp0751 peptide 10 (p10scr) (peptide)
peptide: HHHHHHTSRVKLTISFERSLVNRTRTARFI
notes: Scrambled synthetic peptide; also called p10 scrambled peptide; scrambled version of peptide 10
Consider B2, for which, in assay [4], the binding result is reported as “binds”.

B3: Tp0751 peptide p5 (peptide)
peptide: HHHHHHAMRIALWNRATHGEQGALQHLLAG
notes: One of 13 overlapping synthetic 24-mers spanning Tp0751 T46-P237; also called peptide 5
Take B3: the binding result (in assay [2]; in assay [3]; with Human collagen type I) was “no binding (tested: 2.0 µg per well)” in each case.

In the case of HHHHHHSIRRRLEVTFESHEVIHVRAVEDV (also called peptide 11) [Tp0751 peptide p11], the binding result in assay [1] is listed as “binds”.

B4: Tp0751 peptide p3 (peptide)
peptide: HHHHHHTDPRSHGNAPPAPVGGAAQTHTQP
notes: One of 13 overlapping synthetic 24-mers spanning Tp0751 T46-P237; also called peptide 3
B4: the binding result (in assay [2]; in assay [3]; in the assay with Human collagen type I) was “no binding (tested: 2.0 µg per well)” each time.

B5: Tp0751 peptide p10 (peptide)
peptide: HHHHHHRKTVSFLTRNTAISSIRRRLEVTF
notes: One of 13 overlapping synthetic 24-mers spanning Tp0751 T46-P237; also called peptide 10
In the case of B5, in assay [4], the binding result is given as “binds”.

B6: Tp0751 peptide p7 (peptide)
peptide: HHHHHHTEISPNSGDIHPLLFFDREHAEIT
notes: One of 13 overlapping synthetic 24-mers spanning Tp0751 T46-P237; also called peptide 7
For B6, the binding result (in assay [2]; in assay [3]; in the assay with Human collagen type I) was “no binding (tested: 2.0 µg per well)” in each case.

B7: Tp0751 peptide p8 (peptide)
peptide: HHHHHHFFDREHAEITFSRASVQEIFLVDS
notes: One of 13 overlapping synthetic 24-mers spanning Tp0751 T46-P237; also called negative control peptide
For B7, the binding result (in assay [2]; in assay [3]; with Human collagen type I) was “no binding (tested: 2.0 µg per well)” throughout.

The values are drawn from patent US20160129100A1 (UVIC INDUSTRY PARTNERSHIPS, published 2016).
